20 sequences from a protein production outcome set (Wang et al. 2014) can be followed below.

The data set is described as follows: label from the status in PepcDB records.
As to “MIDNIIRKKWMLKHVRVIVPLLVLLFSLLLTVFVVYTAYSLQLRHNRTLLENLADRQTMALQQFVDGDIHFIGSAANFFRSSTSDDWVRFHTFAEETLKGSQSLIALQWLVKVEPPQAETFTARMQQRFPEFTLYTVPKTGEIKYGFGTDDQAKYVLSDIYPLNYDNRKLLGFYSERERFKRILADIVVNRRPNVSDKVRLLQDGIDKSIVKDGMLVYHPVFSSEDDRSLLGVMVGVVRLSTYFEKLVQISVMEQDLDMRVIDTGFDSEDSPVLYQSPMWRADDEPKIERKLVLPNRDWVLEFELHQPINHSEEWVLLGLGLGGVIISLLLSYIMRMQLEEKQRLTDMIEERTAELRYLVEHDSLTNIYNRRFFSQHLCKMLDEKQSFTLISFDIDRFKQINDSYGHLAGDYALTHVVDVVKKELVESDIFARFGGDEFAILSSVTDETALYTYLERIRKVVEAEPVMLNAETPLTLTISIGASINCEYSEPEILQSVDDQLYLSKSKGRNRVSIAHNAAR”, the protein production entry is recorded as “failed”. As for “MEGAEEAGAEIAVDSKDLQQQSKAFDKLTDRVEDRQLDSSRVQSAMASIAASREADLNAKRLREKELASVKINPADVEFIVNELEIEKNVAERTLREHKGDAVAATRQLLSRYPL”, the entry is “failed”; as for “MPTINQLIRKERKKVVKKTKSPALVECPQRRGVCTRVYTTTPKKPNSALRKVAKVRLTSKFEVISYIPGEGHNLQEHSIVLVRGGRVKDLPGVKYHIVRGALDTAGVNKRTVSRSKYGTKKAKATDKKATDNKKK”, “failed”. Then “MRLKPLPSRPLLGGVLFFALVFAFAGINPWGGGHEGVWNAPREGGMALFALAALAGVLLERRGRGLSVGGGALLALLASAGFLLAGAASTLLSPQPIWSWTGYPSVGDGLRFWALGVAFAWAVFLALETRVLSPRGLFGALLLALGLHALAVFPQVVDWKLDYTQTQGQTYVRCFDRERTDCYENPNATASGIYRGQMPIGLTSHRGHAAGVLALLGLVAAGLYLRSPRPGLLLLFGLGALALWFTQTRGGWLALWGTLALLALGLTWKRPGRLRPALALFLVGALSYGLYLALGQMGVQEPRRFPELGASFAEANAYSSGRLELWRKALAALPLRPWLGWGFDGYARASPHAVDWNGEDRRFVPAALSLPVRLVQGEDRLFYLEDPTGLRLLAPAPYAKAHNLFLDLLLSVGVLGGAAYLLWLGAALRQASWAKLPFALAVAGYLLYGLTWYDSVHVTPLALLALGALVTREEVWRGA”, with “failed”; and “RDVAFTADGTTAYGTLHVPEHRAGQRLRAALLLPGSGPTDRDGNQPPASLPDTLAQLADTLGKDGVATLRFDKYGTGRTGLGTYQDRPEELDYPAFVRQARAGYESLRDQPETDPHALLVVGHSEGAMTGLLLGGTVSPRPAGLALLQPQAIRMLDLVALQLRAQIAEATRQGQFTPEQQRTVNAAVDAAVTALRERRPVDTADLPSPIARLFEAFQGPNARFVRSDDAVYPPDTAFALRPGTKVLLTCGTHDVQVPCDTTNVLTTALRHAHAHGPGRVVLPGVDHLMHDTDHPATLTPPVLDSL”, with “failed”. As for “MSSWPQERRDSLLELVRKSREIFSSMKPLLRVGDRPRAVFVGDTHGAFMVTKYVFENFSDYDAIVFLGDYVDREPYGLENLEIILSHFVENKDKVIVLRGNHESPLTNEYYGFRAEVREKLGDENYKEFVDLFSEMPYAAIVNNYLCVHGGIARNLKNVQQIEELKKPDIIPEDEIAFEMLWNDPREELDGFVPNIRGEGTFFYGKDVTLEFLKENSLKGIIRGHEVADGFRSEIDERVITVFSSRYHKMRAGILLQDGEKFNMVYLDEEFLLKGDKS”, the entry is “failed”; as for “MSDKPTIEQLLNNVSIESLNDMQEDSLAANAKASDVILLSPTGSGKTLGFLLPVFQQLSVSSNSIQALVLVPSRELALQIESVFKSLKTGFKVTCCYGGHPMDVEENNLAQSPALLIGTPGRIVDHINRRNINLDDVKTLVLDEFDKSLEMGFQEDMAIIIGRLTGIKKRILTSATQAIKIPDFTGMQSPVTLNYITGQASGLSVKTVLSDTKDKFDTLLRLLCQIGNESVIVFCNQRDEVENVCAYLTEHGIINNNFHGGLEQRYRESTLTKFRNGSTNVLVTTDLAARGLDIPDVKHVIHYQMPHKIDAFTHRNGRTARMGSTGNAYMLLHKDVLLPDYITSKPDILKLSDQKVKPLLPQWETLFISAGKKDKINKIDIVGFLSKKGLLEKDELGLIEVKDQFAYAAVKRNKVESVIKLVKEEKIKGRKVKIEVARETPKFEAE”, “failed”; as for “MSQAFPGPHGAPATGHVPVLRLGEVLLVTLQGDLHDSTAQQLQEDLAETIVRSGATGVVIDVSGVEIVDSFLGRILAEIAGQTGLLAARTVLVGMRPAVAITLVELGLTLPGVHTALSTEVAMELLRQQAPSSRFGGLRQESQ”, “not failed”. As to “MRKNILITGVHGYIGNALKDKLIEQGHQVDQINVRNQLWKSTSFKDYDVLIHTAALVHNNSPQARLSDYMQVNMLLTKQLAQKAKAEDVKQFIFMSTMAVYGKEGHVGKSDQVDTQTPMNPTTNYGISKKFAEQALQELISDSFKVAIVRPPMIYGAHCPGNFQRLMQLSKRLPIIPNINNQRSALYIKHLTAFIDQLISLEVTGVYHPQDSFYFDTSSVMYEIRRQSHRKTVLINMPSMLNKYFNKLSVFRKLFGNLIYSNTLYENNNALEIIPGKMSLVIADIMDETTTKDKA”, the protein production entry is “failed”.

For “MTNIIKIRASVFIPMSWTEAKMDMETGQVIQFEGDSREFTPHAVNTMRSRVEQEVVVDFYKQEVFSYANTGITTEKVISPDGSVNKRTGKASTENIVCTDIVWNSGGVQFKMSASASNPLNVYAPPVDYVLNVCVKKDGSIDVQGEHDGFPCFEFYKQVDFGPFEKIYTHDFRETGDTAAALGGNMDYSFTKRL”, the protein production entry is on record as “not failed”. As for “MSASVLSDPTMLISTPEVILVSPVSVTQISGDEPDSVTCDCCGLTEECTQSYIEMVRERYMGKWICGLCSEAVKYEVMRTKRLLTTEEAMARHMNMCNKFKSSSPPPNPTGHLISAMRQILRKSLDSPRMLRSMPNSPSKDDQDHHHDCVSNVLSRSDSCFASLT”, the entry is “failed”. As for “SLENERLIKMSRFSERGYVVRENGPVYFTKDMDKTVKWFEEILGWSGDIVARDDEGFGDYGCVFDYPSEVAVAHLTPFRGFHLFKGEPIKGVAGFMMIEGIDALHKYVKENGWDQISDIYTQPWGARECSITTTDGCILRFFESIQEG”, the entry is “not failed”; as for “MAPTLAGPNVAGDCFPGASGCIVLPMSGSLSLHIAAFLALLPAAFTPLRQTPGRDGLFWGTLGVAIIGALVVSIVPSLRQGMWSTSFSSALWVSIAATLLLFSELCFRHQAAWRLTPVLMPYLIALGAMATIWEGAEGAPLADHAPAFWTVLHIVIAVLTYGMLTLGAVAALAGFLQERALKARRPTSLTRRLPAAAEADRLSWILLYTSEWVLGAGLLTGMAVEYLETGAILQPDHKSMLSSLAFLVIGGLILARSRWGVRGRVGARVVLLAYLLLTLAFPGVKFVSDVLL”, “failed”. Then “VKSKAKKTVDAHSDEYKIRRERNNIAVRKSRDKAKMRNLETQHKVLELTAENERLQKKVEQLSRELSTLRNLFKQLPE”, with “not failed”; and “MRERAASARGVQLARSSRVFRKAEWWNDARRFRTVIASAAKQSDRHRGDSPGLLRCARNDACEAMAERHTATGSDRSTSSLASFELRVERNATFPGNVTRLLHLIVVLLLVAGRTAFAAPCQFESQGDGRVAAIVDARSVRLDDGREIRLTGIEPTATTKQALASLLVGRDVTLRSADDTPDRYGRQGGLIFIGDSDTPVQAMLLAQGDAIVSAEIADKDCAAALMSSEAEARRQKKGNWADPSAIKNAESPDDILAGIGRFVVVEGKVLSVRQAGAMTYLNFGRNWTRGFAVTISRRASPAFETAGIALKSLENRRIRVRGWVEGNTGPRIDVRLVGQVELLGANEPAGVRP”, with “failed”; and “KSEIGKYAPFFSLPNAKGEKITRSSDAFKQKSLLINFWASWNDSISQKQSNSELREIYKKYKKNKYIGMLGISLDVDKQQWKDAIKRDTLDWEQVCDFGGLNSEVAKQYSIYKIPANILLSSDGKILAKNLRGEELKKKIENIVEEA”, with “not failed”. For “MPKKVVPEEARRRRRPTRQGAVLSEGLIVRTALRMLREHGTGGLTARRLGAALGADPSTLYRYFAGMDDLARAVGNELMGQALDGWTAQGDWRADLRSLGLALHSSYLAHPQAAVLTASRVSGRPREIAVDEAILGLLRGAGLTDRAAVRFYHAFIDLALAFAALDAGSLALPEEARRSDEDMWGTTYARLPAETHPNIAATAERLAARMPHSAYPVVLDTLLDGIAAELTGTAPEM”, the protein production result is reported as “not failed”. With “MTRRGGRLRTVLTVLTAWSALAGAALAGAAPAGGAPRSVPLAPGVEYTQFDIPADRGVTHAHLLSVDLADPRVRVGLLHPGAVAARAPVSRLADSQGALAGINGDFFNITETQHPGVEATGSTDGPAIADGHTLKAAVPNGQRFGPALPPGTTTEDVLGVGDDRRARLDRLALEGSVDTAAGELPLRGLNQYALPEGSVGAYTADWGSVSRARAVCGTDTDRAAPCSTDTYEVTVRDGQVVSFADSPGSGPIAAGTTVLVGREAGAQQLRKLSTGEEVSVEHRLVAAGSQVAYSFAIGGYPVLRQGKPLPGLDTVTSAVRTAVGIKDAGRRLLLLAIDGAAAYRSGLTIAEVASVMRGLGATEAFSLDGGGSTTLVARAPGATSVTVRNHPSGGAERPVPNGIGVFTRT”, the protein production result is recorded as “failed”. Then “MEQSVPARGTSPARRLATAARHCLVLAVASILAACTTITAVTPNEPEQRLVWPGPPLQPRIEWVREVYNQKGLGVSPGFWGRIARFVLGEKEERFIRPHGILADEQIFALVDSGAGRVHLIDLKRGTYRLLPEEGKTPMVSPIGIARDSRGAIYVTDSGTGLIHRFSDDGDSFVALDLRPLHRPTGIAFNPVTGLLYVAETGAHRIVAFDSAGKETLRIGGSGMEPGAFNFPTDLAVMADGRLLVTDSLNSRIQIFTADGKPAGSFGEAGDTPGRFTRPKGVAVDSEGHIYVCDSQQDMVQIFDETGRLLLAFGDKGSLPGQFWMPSGIHIANDMIYVSDTYNQRVQVFRYLKEEPWGQDPHTPD”, with “failed”. Take “MTITSKLKKRRSLSTLITKIIILVLAPIILGIFVQSYYFSKQIIWQEVDRTKQQTSALILNIFESHFAAIQIHHDSNSKSDVILDFYSERNEEALNYFFLSIDQSDPSHTPEFRFLTDHQGIIWDDGNAHFYGINDSMLDGLTSKVTFSNNWYYVTSITSMGARHLLLRRVPVLEPKTGEVMGYSYNAVVLDNNFALMEKLKNEGNVDNVVLVANDIPVASSLAGDESYKIFDVLKRKETQKKLDQLLIIQTPIEVNAAITNLKLLTVQDNQSVVTLQIQHFLAMLASVIGMIMIALMTKEWIENRVVEELGSLMSYTRSAREEKGFERFGGSDIEEFDHIGSTLESTFEELEAQKRSFRDLFNFALSPIMVWSEAGVLIQINPAARKELVIENDIETMHPVFKGFKDKLVPHLRMAAQGATLTGVNVPIGDKVFRWNLSPIRVDGDISGIIVQGQDITTLIEAEKQSNLARREAEKSAQARADFLAKMSHEIRTPINGILGVAQLLKDSVEAEEQKNQIDVLRHSGEHLLAVLNDILDFSKIEQGKFNIQKHPFSFADTMRTLENIYRPICENKGVELVIENQLDGNVEIFTDQVRLNQILFNLVSNAVKFTPSGCVRLHAELEQFYGADNSVLVVEISDTGIGIESDKLDEMFEPFVQEEATTTREYGGSGLGLTIVKNLVDMLDGDVQVRSQKGQGTTFVVTLPVKDRERVLAPLDSSQRVKPAELFDESLKVLLVEDNHTNAFILKAFCTKYKMQVDWAKDGLEAMEFLKDHSYDLILMDNQLPHLGGIETTKEIRQNLKLGTPIYACTADTAQETSDAFMEAGANYVLLKPIKENALHEAFVDFKQRFLIERT”: the protein production result is given as “failed”.
